Source: publication PMC10359499
Each block holds one substance with its values, some of them ahead of it.

How the values were obtained:
[1] = biological target: MS367 (PAS histidine kinase from Methylocella silvestris BL2) (Methylocella silvestris BL2); assay: SEC-MALS; PAS-HKs MS367 and RE356; mixtures, and monomer and dimer fractions purified separately and reinjected on Superdex 200 GL; HSEC buffer with 1 mM ATP; FPLC at 4 °C, MALS at 25 °C; n = 1
[2] = biological target: RE356 (PAS histidine kinase from Rhizobium etli CFN 42) (Rhizobium etli CFN 42); assay: as above
[3] = biological target: RH376 WT (LOV histidine kinase); assay: SEC-MALS; LOV-HKs and RH376 deletion mutants; ~15 μM sample (400 μl) with 1 mM ATP on Superdex 200 GL 10/300 in HSEC buffer (50 mM Hepes pH 7.5, 100 mM NaCl, 10 mM MgCl2, 0.5 mM DTT) with 1 mM ATP; dark (dim red light) and lit (blue LED) runs; FPLC at 4 °C, MALS and refractive index at 25 °C; n = 1; oligomeric state on a qualitative five-bin scale
[4] = biological target: RT349 (LOV histidine kinase from Rubellimicrobium thermophilum) (Rubellimicrobium thermophilum); assay: as above

stoichiometry N [1]: 2
Substance: MS367 (PAS histidine kinase from Methylocella silvestris BL2) (enzyme)

stoichiometry N [2]: 2
Substance: RE356 (PAS histidine kinase from Rhizobium etli CFN 42) (enzyme)

stoichiometry N [3]: 2
Substance: RH376 WT (LOV histidine kinase) (enzyme)

stoichiometry N [4]: 2
Substance: RT349 (LOV histidine kinase from Rubellimicrobium thermophilum) (enzyme)
